Consider one substance from patent publication US10787678.

The assay deals with A. diaperinus cadherin-1 (AdCad1) (Alphitobius diaperinus). The experiment in a line: cell-based or functional assay.

Substance “Cry3Bb toxin (from UniProt Q06117 64-652)” returned a larval mortality on day 3, 100 ug/cm^2 Cry3Bb, larvae injected with AdCad1-dsRNA #1 (AdCad1 knocked down) of 8% and a larval mortality on day 3, 100 ug/cm^2 Cry3Bb, larvae injected with AdCad1-dsRNA #2 (AdCad1 knocked down) of 11%.
